Legend:
TGF-βRII = target: T1, TGF-βRII (Rattus norvegicus, UniProt P38438); assay: Albumin and TGF-βRII co-immunoprecipitation in cortical lysates; assay type: binding; conditions: cortical lysate pre-incubated with albumin
T1 construct: brains were isolated from adult Wistar rats, dissected in cold saline solution and lysed in RIPA buffer; from tissue; host or cells: adult Wistar rat brain cortex lysate (RIPA buffer)
T1 sequence (P38438 24-567): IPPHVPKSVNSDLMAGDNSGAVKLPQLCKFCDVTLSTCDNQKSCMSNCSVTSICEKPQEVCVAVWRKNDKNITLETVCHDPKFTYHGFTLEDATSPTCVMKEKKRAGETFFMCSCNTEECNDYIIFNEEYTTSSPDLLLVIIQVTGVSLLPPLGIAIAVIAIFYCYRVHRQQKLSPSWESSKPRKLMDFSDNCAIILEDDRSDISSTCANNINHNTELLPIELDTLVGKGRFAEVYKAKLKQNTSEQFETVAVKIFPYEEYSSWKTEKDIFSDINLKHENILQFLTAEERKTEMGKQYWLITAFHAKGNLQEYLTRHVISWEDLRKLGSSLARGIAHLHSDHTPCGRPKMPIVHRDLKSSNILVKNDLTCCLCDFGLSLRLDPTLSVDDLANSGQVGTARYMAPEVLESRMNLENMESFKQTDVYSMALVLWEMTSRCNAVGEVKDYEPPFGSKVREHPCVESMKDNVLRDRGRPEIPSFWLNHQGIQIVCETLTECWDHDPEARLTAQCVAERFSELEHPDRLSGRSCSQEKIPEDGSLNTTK
Method: To prepare cortical lysates, brains were isolated from adult Wistar rats, dissected in cold saline solution and lysed in RIPA buffer. BSA (3 μg) was added to lysates to approximately match the amount of precipitating anti-albumin antibodies. Immunoprecipitation was performed using the Catch and Release® v2.0 Reversible Immunoprecipitation System (Upstate, Charlottesville, Va.) with the following modifications to the standard protocol: the starting amount of protein was increased to 1,500 μg and the incubation time with precipitating antibodies was increased to 90 minutes. […]
The immunoprecipitated samples were separated with SDS-PAGE and transferred onto a nitrocellulose membrane. […] TGF-βRII was detected with a rabbit anti-TGF-βRII antibody (Upstate) and an AP-conjugated donkey anti-rabbit IgG secondary antibody (Jackson ImmunoResearch Laboratories, West Grove, Pa.). […]
To determine whether albumin binds to TGF-β receptors, co-immunoprecipitation using antibodies against albumin or TGF-βRII was performed on cortical lysate samples treated with albumin. An expected hand corresponding to TGF-βRII was detected in samples immunoprecipitated with the TGF-βRII antibody. More importantly, this band was also detected in samples pre-incubated with albumin when immunoprecipitated with the albumin antibody and probed for TGF-βRII (FIG. 2a). […]

cortical slices = assay: Extracellular potassium accumulation in cortical slices measured with ion-sensitive microelectrodes; assay type: cell-based, rat; conditions: slices 24 h following treatment with albumin; frequencies ≥10 Hz
Method: Electrophysiological recordings were obtained 6-10 h following perfusion with sACSF. Control slices were treated similarly, using sACSF without albumin. For extracellular recordings, glass microelectrodes (˜3 MΩ, 154 mM NaCl) were positioned in layer 4 of the neocortex. Slices were stimulated with brief (100 μs) pulses, by using bipolar stimulation electrodes placed at the border between white and gray matter in the same conical column. Trains of 50 stimuli were applied at 2, 5, 10, 20, 50 and 100 Hz, at 2.5× threshold stimulation intensity. […] Extracellular potassium concentrations ([K+]o) were measured with ion-sensitive microelectrodes (ISMEs; Lux and Neher, 1973: Jauch et al., 2002).
To study K^+ clearance from the extracellular space, K clearance was recorded from control and treated slices (24 h following treatment with albumin) by using ISMEs. Slower decay kinetics of [K^+]o in response to pressure application in BBB-treated animals has been reported (Ivens et al., 2007). Here, [K]o accumulation during neuronal activation at different frequencies of stimulation was tested. In slices from control animals, the increase in [K^+]o was limited to 25% of baseline levels (<3.75 mM) at all stimulation frequencies with the employed stimulation intensities and number of stimuli.

interaction with TGF-βRII (co-immunoprecipitation) (TGF-βRII): direct interaction
Substance: albumin: bovine serum albumin, used to induce epileptogenesis
[K+]o accumulation during neuronal activation, level reached (cortical slices): 6.7 mM

Reference: patent publication US10668049B2, “Methods of treating cognitive decline with transforming growth factor beta inhibitors” (The Regents of the University of California, priority 2008, dated 2020)
